Experimental data as given in the nanobody polyreactivity screen of Harvey et al. (2022).

Assay: yeast display, Sf9 membrane polyspecificity reagent, FACS + sequencing; frameworks hold sequencing errors
Outline: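 After 36–48 hours of galactose induction, yeast (Saccharomyces cerevisiae BJ5465) displaying a synthetic nanobody library were stained at 4 °C for 1 hour with 10% biotinylated, detergent-solubilized Sf9 membrane reagent. Streptavidin microbeads enriched the stained cells before FACS sorting into low and high (top ~1%) gates on anti-HA and streptavidin fluorescence. Each clone's polyreactivity label reflects its gate of origin.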

Row | Sequence | polyreactivity (PSR sort gate)
1 | QVQLVESGGGLVQAGGSLRLSCAASGSIFGYYTMGWYRQAPGKERELVAAITRSGATTFYADSVKGRFTISRDKAKNTVYLQMNSLKPEDTAVYYCAAQARGYTRGYWGQGTQVTVSS | high polyreactivity
2 | QVQLVESGGGLVQAGGSLRLSCAASGSTFGWYAMGLYRQAPVKERELVATISSGGSTYYADSVKGRFTISRDNAKNNVYLQMNSLKPEDTAVYYCAADYWTYEYPGYDYWGQGTQVTVSS | low polyreactivity
3 | QVQLEESGGGLVQAGGSLRLSCAASGITFRYYAMGWYRQAPGKEWELVAAITRSGSSTFYADSVKGRFTISRDNAKNTVYLQMNSLKPEDSAVYYCAAESVRAVFPDRYKYWGQGTQVTVSS | high polyreactivity
4 | QVQLVESGGGLVQAGGSLRLSCAASGRIFDYYAMGWYRQAPGNERELVAAINSGGSTYYADSVKGRFTISRDNAKNTVSLQMNSLKPEDTAVYYCNALRKSLRGGDYWGQGTQVTVSS | high polyreactivity
5 | QVQLVESGGGLVQAGGSLRLSCAASGNTFRWYDMGGYRQAPGKERELVAAITSSGSTTYYADSVKGRFTISRDNAKNTVYLQMNSLKPEDTAVYYCAAEDHYEGYGGYYWGHGTQVTVSS | low polyreactivity
6 | QVQLVESGGGLVQAGGSLRLSCAASGRIFAVYAMGWYRQAPGKERELVAAISWSGGRTYYADSVKGRFTISRDNAKNTVYLQMNSLKPEDTAVYYCNRTPTGSYLYGMDYWGQGTQVTVSS | high polyreactivity
7 | QVQLVESGGGLVQAGGSLRLSCAASGFTIASNDMGWYRQAPGKERELVAAITKGGGRTYYADSVKGRFTISRDNAKNTVYLQMNSLKPEDTAVYYCAARQLIKYDYWGQGTQVTVSS | low polyreactivity
8 | QVQLVESGVGIVQAGGSLRLSCAASGFTFSSNAMGWYSQAPGKEREFVADISIIGGDTTYADSVKGRFTISRDNAKNTVYFQMNSLKAEDTADYYCIAKPPGWFWGGFSYNRYYYWGQGTQVTVSS | low polyreactivity
9 | QVQLVETGGGLVQAGGSHRLSCAASGFIIPYYAKGWSRQPPGKERELLAAIDSGGSTNYADSVKGRFTISRDNAKNTVSLQMNRLIPEDTAVYYCAVPSYGVNIWGGFDEYNYWGQGTQVTVSS | high polyreactivity
10 | QVQLVESGGGLVQAGGSLRLSCAASGITFINYDMGWYRQAPGKERELVAAISQIGTSTYYADSVKGRCTISRDNAKNTVYLQMNSLKPEDTAVYYCNARYISTGFRYNYWGQGTQVTVSS | high polyreactivity
11 | PVQLVESGGGLVQAGGSLRISCAASGSIFRVNAMGWYRQAPGKERELVAAITTNGGSTYYADSVKGRFTISRDNAKNTVYLQMNSLKPEDTAVYYCAADYSLPWSWLYEYWGQGTQVTVSS | low polyreactivity
12 | QVQLVESGGGLVQAGGSLRLSCAASGSTFAYYAMGWYRQAPGKERELVAAITSSGGSTYYADSVKGRFTISRDNAKNTVYLQMNSLKPEDTAVYYCNARYRRKSWRPFDYWGQGTQVTVSS | high polyreactivity
13 | QVQLVESGGGLVQAGGSLRLSCAASGRTFFLYAMGWYRQAPGKEREFVATISYGGGSTYYADSVKGRFTISRDNAKNTVYLQMNSLKPDDTAVYYCNALNTSQYAEGTSDYDGNMGYWGQGTQVTVSS | low polyreactivity
14 | QVQLVESGGGLVQAGGSLRLSCAASGIIFDDNAMGWYRQAPGKERELVAAINRDGSTYYADSVKGRFTISRDNAKNTVYLQLNSLKPEDTAVYYWAADFYGPRSAVYFLRYSTRYYWGQGTQVTVSS | low polyreactivity
15 | QVQLVESGGGLFQAGGSLRLSCAASGSTFWFNAMGWYRQAPGKERELVAAITSGDGTNYADSVKGRFTISRDNAKNTVYLQMNSLKPEVTAVYYCATVYADESGIEGYSWGQGTQVTVSS | low polyreactivity
16 | QVHLVESGGGLVQAGGSLRLSCAASGIIFYDNTMGWYRQAPGTERELVASITWRGGSTYYADSVKGRFTISRDNAKNTVYLQMNSLKPEDTAVYYCNADSSDDYDYWGQGTQVTVSS | low polyreactivity
17 | QFQLVESGVGLVQAGASLRLSCAASVLTFVGNAMGWYRQAPGKERELVDAISKRGGRTYYADSVKGRFRISRDNAKNTVYLQMNSLKPEDTAVYYCAATIKAYPTPLLGDYWGQGTQVTVSS | high polyreactivity
18 | QVQLVESGGGLVQAGGSLRLSCAASGFTFRIYAMGWYRQAPGKERELVAAISWAGGSTFYADSVKGRFTISRDNAKNTVYLQMNSLKPEDTAVYYCAADTAFHYDYWGQGTQVTVSS | low polyreactivity
19 | QVQLVESGGGLVQAGGSLRLSCAASGSTFERYAMGWYRPAPGKERELVAAISAIGDSTYYADSVKGRFTISRDNAKNTVYLQMNSLKPEDTAVYYCAARYTRYHIGRGYYYWGQGTQVTVSS | high polyreactivity
20 | QVQLVESGGGLVQAAGRLRLSSAASGIIFYSYAMGWYRQAPGTEREFVAAITNSDGSTYYADSVKGRFTISRDNAKNTVYLQMYSLKPEDTAVYMYYWGQGTQVTVSS | low polyreactivity
21 | QVQLVESGGGIVQAGGSLRLSCAASGITFFYYAMGWYRQAPGKERELVASISSGGSTYYADSVKGRFTISRDNAKNTVYLQMNSLKPEDTAVYYCAAPTGWYPAYGEYEYWGQGTQVTVSS | low polyreactivity
22 | QVQLVESGGGLVQAGGSLRLSCAASGSIFSYYAMGWYRQAPGKERELVAAISRGGYTYYADSVKGRFTISRDNAKNTVYLQMNSLKPEDTAVYYCAAAPYYVTLVTRRDYWGQGTQVTVSS | high polyreactivity

Row | Sequence | polyreactivity (PSR sort gate)
23 | QVQLVESGGGLVQAGGSLRLSCAASGRTFSAYAMGWYRQAPGKERELVARITSVDSTNYADSVKGRFTISRDNAKNTVYLQMNSLKPEDTAVYYCNATFGYPFVEYDDYWGQGTQVTVSS | low polyreactivity
24 | QVQLVESGGGLVQAGGSLRLSCAASGITIYRYAMGWYRQAPGKERELVATITWSGGSTYYADSVKGRFTISRDNAKNTVYLQMNSLKPEDTALYYCAAYSPYIYQAYRYDYWGQGTQVTVSS | low polyreactivity
25 | QVQLVESGGGLVQAGGSLRLSCAASGLIFLQYVMGWYRQAPGKEREFVATITDDGDTTYYADSVKGRFTISRDNAKNTVYLQMNSLKPEDTAVYYCAARYVPVYYWDYPYDYWGQGTQVTVSS | low polyreactivity
26 | QVQLVESGGGLVQAGGSLRLSCAASGSTFGPNTMGWYRQAPGKERELVAAINLRGGRTYYADSVKGRFTISRDNAKNTVYLQMNSLKPEDTAVYYCAARFKTTGYDYWGQGTQVTVSS | high polyreactivity
27 | QVQLVESGGGLVQAGGSLRLICAASGRIFGYNAMGWSRQAPGKERELVAAIRGSGSTYYADSVKGRFTISRDNAKNTVYLQMNSLKPEDTAVYYCAARTSSTKYYYWGQGTQVTVSS | high polyreactivity
28 | QVQLVESGGGLVQAGGSLRLSCAASGRTFDVYAMGWYRPAPGKERELVAAITSGGSTYYADSVKGRYTISRDNAKNTVFLLINSLKPEDTAVYYCATDVDKSLYDYWGQGTQVTVSS | low polyreactivity
29 | QVQLVESGGGLVQAGGSLRLSCAASGRIFVFNAMGWYRQAPGKERELVASISSSGGSTYYADSVKGRFTISRDNAKNTVYLQINSLKPEDTAVYYCARRSYHSRYNYWGQGTQVTVSS | high polyreactivity
30 | QVQLVESGGGLVQAGGSLRLSCAPSGITLVRYAMGWYRQAPGKERELVAAISSSGGSTYYADSVKGRFTISRDNAMNPVYLQMNSLKPEDTAVYYCAKRLYYGDPPTYDYWGQGTQVTVSS | high polyreactivity
31 | QVQLVESGGGLVQAGGSLRLSCAASGSIFWRNAMGWYRQAPGKERELVAAITKTGASTYYADSVKGRFTISRDNAKNTVYLQMNSLKPEDTAVYYCAKDTRGRYAGSYRYDYCGQGTQVTVSS | low polyreactivity
32 | QVQLVESGGGLVQAGGSLRLSCAASGGTFRSNAMGWYRQAPGKERELVAAITRTGRTNYADSVKGRFTISRDNAKNTVYLQMNSLKPEDTAVYYCNAARYVREYDYWGQGTQVTVSS | high polyreactivity
33 | QVQLVESGGGLVQAGGSLRLSCAASGRIITKYNTMGCYRPATGIEMELVAAINRSAGSTYYADSVKGRFTISRDNAKNTVYLQMNSLKTEDTAVYYCAAKRGASYGSSLGAPRRHYDEYWGQGTQVTVSS | low polyreactivity
34 | QVQLVESGGGLVQAGGSLRLSCAASGRIFVGYGMGWYRQAPGKERELVASIDTGGSTYYADSVKGRFTISRDNAKNTVYLQMNSLKPDDTAVYYCAADYQSYTSLTGYHNSEGDPWGQGTQVTVSS | low polyreactivity
35 | QVQLVESGGGLGQAGGSLRLSCAASGRIFRYNAMGWYRQAPGKDRELVAVITSRGGRTYYADSVKGRFTLSRDNAKNTVYLQMTSLKPEDSAVYYCTATYSGRGSTYWSGYDYWGQGTQVTVSS | high polyreactivity
36 | QVQLVESGGGLVQAGGSLRLSCAASGSIFYDYVMGWYRQAPGKERELVAAISVSGGRTYYADSVKGRFTISRDNAKNTVYLQMNSLKPEDTAVDYCAAKYPAGGRNYDYWGQGTQVTVSS | high polyreactivity
37 | QVQLVESGGGLVQAGGSLRLSCAASGFIIDYYAKGWYRQAPGKERELVASITDSTTYYADSVKGRFTISRDNAKNTVYLQMNSLKPEDTAVYYCNARGGYAYVLYDYWGQGTQVTVSS | low polyreactivity
38 | QVQLVESGGGLVQAGGSLRLSCAASGRTFPYYAMGLYRQAPGKERELVATITRGGSTYYADSVKGRFTISRDNAKNTVYLQMNSLKPEDTAVYYCAVDAYYEMDYWGQGTQLTVSS | low polyreactivity
39 | QVQLVESGGGLVQAGGSLRLSCAASGRTFYYYAMGWYRQAPGKEREFVAAITTRGGSTYYADSVKGRFTISRDNAKNTVYLQMNSLKPEDTAVYYCAARSYYQGGYYYWGQGTQVTVSS | high polyreactivity
40 | QVQLVESGGGLVQAGGRLRLSCAASGRIGPNVMGWYRQPPGKERELVAAISRRGGSTYYADSVKGRFTISRDNAKNTVYLQMNSLKPEDTAVYYCAKDLYTLAVKGGDYWGQGTQVTVSS | high polyreactivity
41 | QVQLVESGGGLVQAGGSLRLSCAASGFTFVVNAMGWYRQAPGKERELVATIRSNGGSTYYADSVKGRFTISRDNAKNTVYLQMNSLKPEDTAVYYCAATATDTKYGYWGQGTQVTVSS | low polyreactivity
42 | QVQLVESGGGLVQAGGSLRLSCAASGSIFQYNAMGWYRQAPGKERELVAVISRSGSRTYYADSVKGRFTISRDNAKNTVYLQMNSLKPEDTAVYYCAAPFTSIGARDYYYWGQGTQVTVSS | high polyreactivity
43 | QVQLVESGGGLVQAGGSLRLSCAASGGTFSDNAMGWYRQAPGKERELVADIDIGGITYYADSVKGRFTISRDNAKNTVYLQMNSLIPEDTAVYYCAAVTTYYYYDVTDYAYEYYYWRQGTQVTVSS | low polyreactivity
